Laboratory results reported in the DeepSol protein solubility set.

Test: soluble on expression in E. coli; label from the status in PepcDB or PDB records

Sequence | soluble on expression in E. coli
MTTKYAALLRGINVGGSRKVPMADLRALLTSLGHDAVRTHLQSGQAVFAAAHGDEDSLAAELAEAIGERFGFPVDVIVRDHAYLRSVVEACPFPAAELEARQLHVTYFSAPVEADRFAAIDAPAFRPEEFRLGDRALYLYAPDGLGRSKLAEALARPRVNKGLVATSRNWNTVTKLVELTGP | not soluble
MPAHPAKTDLASSAGARGGALAMESAEHSASPAIATTARLLAAMKDQPGALLPVLHAVQDELGFIPPEAVQTIAETLSLSRAEVHGVITFYPHFRSEPAGRHVLEICRAESCQAMGGDALAAHARQRLGCEFHATAADGSCTLEPVYCLGLCAQSPAVMIDGQPHARVTPAKLDRLLARAIEATP | not soluble
GSQITGTCPSGCSGDCYPECPPGCCGQVNLN | soluble
MKQKRSSSGLKKRIFSTFGKASEERPSLLLLDLPIDILLAITKQLDTETRMIVRKVSPAFRDIIDYQGSGVKTMKIGKDCITIDWKRIEYREGVHCSCLIIYQGHIKTKIYESPQSLMFQDLSILLKSPRIRLSWLDLAPISCTSYNWTGVDVNSIVKILEPIKSRHIERVYFQDINYAEVVLILQKFKAGFLREISLDSEQINGWSIPQIGGMVHLEQWKRAQHLKIHSFVNLDPLINHISHFHTIQLLCQSMSKLQMLKWKEIINTSKTLVKCVLRGNANFAGLARVFDPAFEQAYGNISYVSADEFNCTIRFMPENFCIMKLK | not soluble
MGSDKIHHHHHHKNTDLVAEDSICFPIDEHTYYASKSIFQFEENGHEYLSFLDAEYSQKINIYDIKNQKLIKTILLQKEGPNGMNVLSGCHPLNLNHFIITSWNGTFSLVNDKGEIEKKFDFWEKGVNFQEFDHISFSSYSYKPAIIKDSILYFSQSFLKHPRKKSDWNKIPMFAFANLNTGKTGWSELRYPLIFNKDEDFKNVKLYDPEICYTYTGKDVVISLGQYDSIMVSSDFKHKISYNAKSRYLAHAYPHLQDGQIDLFKNIQIQGKLPHYSHLMYDKYRKVFYRFALMPDDNIKPFSNNPHQSFSIIILNKDYEIIGETKFPGNTYTHHLCFVGKKGLYISENNENNPQFDENKLVFRCFTLQDRKK | not soluble
MEQTTIDGISLSLAGPVELTLRWVGQDELLKQLLAAWMVIDEKDIPFNPRLIGKPGVGKTTLAYAAARRLDRPVYLFQATMDTRPEDLIITPVIGPDGKIQYAASALVSAMLKGGVLILDEGNRMSEKAWASLAPLLDDRRYVESIITGLRVPAHRDFRIVVTMNEDSSTFEVPEYIHSRLQPQIFIDFPEADEELLILKENLPFAPSRILAYVVDFLQRAHAADELYSVRDGINIARYALKMMAATERDSVELLPLAVERVLGDEALRYLKLEHHHHHH | not soluble
MGSDKIHHHHHHMFQYRFKWSFSSDPNLSDRLFELIEVIFPGLNDLVERGRKLGASWESASTPFIRFHDDVAITHVGVLEIPMVIMGQRVTVGGIHGVATRPEFRRKGYYREVIEEVLEYCDQIYETLILTTPEPEYHLPFGFRVVEEYIFHLKCSSKGNVNGWRILDFSDNQDLALLHRLLETRAPVSHVVGVVNEKPVFFVNEGSRDLYYAEDLDLIACIKIENNRLHIFDLVATKICSLKEILGRTSEVIEEVKIYFSPDLLDVDNVQAFPYKLEDTVLMIRGQFAAVGEKFMLPRSARC | not soluble
MAHHHHHHMLANEGRNASANNTTQPSFLILSSKNRHCITHNLTQIQTRCRPHFTEKRLKRGSWLKREEVWIEVQLCYRLGRRFTPTLFSQCAYRPSIRLGPTGTTGLAVPLLKIIYRQNSTIQKHKKEDDEKRCIKKKTIYGT | not soluble
MSLLVIPAIDLQSGRCVRLKQGRFDQVTQFSVFPIERALHFAKLGAKRLHVVDLDGARSGKMQQLELICSMQKTGIPIQAGGGIRSIEQALECSNAGISQLVIGSLAITNPDLTIQIIEKIKPENIVLALDVRVDTKVPLLAINGWQNNSTSSLWEVVSYYENYGIKNILCTDIACDGMMNGPNFDLYQQAVEYFPQIAWQASGGVRHMQDITTLNSLGISAVILGLMLYQDHMNLEELLEGHHHHHH | soluble
VTLAAEPHPAPPQQPTVAWSEPDVDRRVEFWPTVAIRSALESGDIATWQRIAAALKRDPYGRTARQVEEVLEGIPATGIANAFWEVLDRARTHLDANERAEVARQVGLLLDRSGLQRQEFASRIGVTAQDLTAYLDGIVSPSASLMIRMRRLSDRFVRAKSVRAADS | soluble
MSLTDPLRFVLVPKVVHPWFDKVNDGAKAAAEMLTTTTGRKVTVEYRAPQKADVVEQNDIIARSIATRPDGIFVDLLDEKGNRAVLEEAQEQGIPVTVFDSVAPEGMNLTSIGNDFCEQATIASTRLVELMGGKGEVAIMMGVPTAPNHAIRAKCHEQTFAKYPDIKLVATGIDNDSIETAQKQAAAIMQAHPNLKGWVASDAAGPIGIGQAIKEAGKVGKVFEVGLDDLPDLLALIKEGVVDSSSSTKPEMQGYWAVIATWQKAMGMPTPKYIDTGIAVITKESLAKEGHHHHHH | soluble
ETEPGHALVIWHDSTNEYYTMQQLTLAYEESRLLFEKAPQGIAMLDPSGEIVMANRSFGDLVGTTPVRLLGRNLEDFGVEEGTMEYVTPVLSDPEAVVHLDRSLETLRGKQKNVAMSFSSMGNVG | not soluble
GIDPFTAPGQLECETAIAALNSCLRDLDQASLAAVSQQLAPREGISQEALHTQMLTAVQEISHLIEPLASAARAEASQLGHKVSQMAQYFEPLTLAAVGAASKTLSHPQQMALLDQTKTLAESALQLLYTAKEAGGNPKQAAHTQEALEEAVQMMTEAVEDLTTTLNEAASAAG | soluble
MSSGNILWGSQNPIVFKNSFGVSNADTGSQDDLSQQNPFAEGYGVLLILLMVIQAIANNKFIEVQKNAERARNTQEKSNEMDEVIAKAAKGDAKTKEEVPEDVIKYMRDNGILIDGMTIDDYMAKYGDHGKLDKGGLQAIKAALDNDANRNTDLMSQGQITIQKMSQELNAVLTQLTGLISKWGEISSMIAQKTYS | not soluble
MGSDKIHHHHHHMSSSSVLAESCNGSQKKRVFVVGATGYIGKFVVRELVSRGYEVISFARPRSGVNASTTEDETRRQLQGSEVRFGDVSNLESLLRDGIRGEHFDAVVSCLASRNGGIKDSWDIDYQATRNSLDAGMKAGINHFVLLSAICVQKPMLEFQRAKLKFEKELRESGVTYSIVRPTAFFKSIAGQIEKVKNGKPYVMFGDGKLTACKPISEGDLARFITDCLEDPEKQNKILPIGGPGEPVTNLDQALMLFELLGRKPKLKKVPIQIFDVIIPLLTLISKFLPSFAEKAEFARIGKYYCSESMLVWDPVKKRYDADATPSYGTETLRDFYKRVLKEGLAGQELGAHAMF | not soluble
HLEDVKFMIVGLPDVGLVGAITGMHLIRSKDMSYTVGIDHYGALPPVVIMNRGRVLHPIRIYRSGDVAALITDVPILPAAIPSFSAAVVEYSRRRGIEYIISATGVGNPKRLEQEKPSLYWLASDKKASLLASSLRMASEPEQGIIVGPYAIILKEAMKKHVHNLVLLADSFIDIPDPEAAAVIVEGINSITGLNVSVDELIKQAEEIKLRMRDLMKETKAVMARMGKEMEYRAPILYT | not soluble
MSMGKQGVKTAVPKLRFPEFRHSEAWELKKLSCFLVEQKKRNKNLSFGPQEVLSVSGEHGCVNQIELLGRSYAGVSLANYHVVETGDIVYTKSPLKRNPFGIIKENKGKPGVVSTLYAVYRTTVFGNPAFLDHYFSGDYNLNSYLQPIVRKGAKNDMKVSNAAVLAGEVFAPEVEEQKKIADFLTSLDDLISVQVLKVEALKVHKRGLMQELFPREGEASPRLRFPEFSNASGWTLGKASDIIDVLQGYGFPERLQGGREGNFPFYKVSDISACVDAGGILLDKANNHIDADVLEELRAKLMPIGSTVFAKIGEAIRSNKRAITSRPCLVDNNVAGVKAITGLAHDRFVYYMWCQIPLIEYAGGVVPAVKKSLMEQIPVCYPKFDEQQRIADFLSSLDAKIAAEFDQLAALRTHKKGLMQQLFPLSEVGLLEHHHHHH | soluble
MGSDKIHHHHHHMKISPLCPSCLLGRVYYEAKLVTDDEDLISQCVDESLKILAENYSSRPINAHLATRIHRRVYEILGVEDPYAEVKARANEVARQVLPLAKEIVEGSDDPFKTAVIVSIVGNNFDYGVQGHKVVEEEFRDFLKRKVQEGLKINDTERIKELSSGKVVYLTDNAGEIFFDTLLMKEIKRRCEKLTAVVRGRPIISDATIEDARLARVDKIADELLTNGKGAIGIIMDELPDETRKALEEADLIVAKGMANYECLSDGSLKPIAFLLTAKCEPVARDIGVNVGDMVAKVVE | soluble
MAILGLGTDIVEISRIQAVVERTGERLARRILSPSEWQHYQQHQQPVRFLAKRFAVKEAAAKAFGTGIRNGLAFNQFEVVNDALGKPTLRLHSRAAELAVELGVKSLHVTLADERRYACATVIIES | not soluble
MSCEIVVYPAQDSTTTNIQDISIKNYFKKYGEISHFEAFNDPNSALPLHVYLIKYASSDGKINDAAKAAFSAVRKHESSGCFIMGFKFEVILNKHSILNNIISKFVEINVKKLQKLQENLKKAKEKEAENHHHHHH | soluble
MVLRRDFLTWCNETLQTALFKDYAPNGLQVEGREYIGKIVTSVTASRAAIDFAVEQKADLLLVHHGMFWKNELPTVTGWKKERIAALLRHDINMAGYHLPLDAHPTLGNNAQLADRLGFATEKRFGEQNLLNSGSLKQAKTLGALAAHIETVLQRKPVVIGKPEREIRRVAWCSGGAQGFFQTAIDEGVDLYLTGEISEAQYHLANETGTAFISAGHHATERYGVRALAESAAEVFGLEVCHFDENNPALEHHHHHH | soluble
SDSASQDINLNSPNKGVLSDFMTDVPVDPGVVHRTPVVEGLTEGEEEELRAELAKVEEEIVTLRQVLAAKERHCGELKRRLGLSTLGELKQNLSRSWHDVQVSTAYVKTSEKLGEWNEKVTQSDLYKKTQETLSQAGQKTSAALSTMGSAISRKLGDMSSYSIRHSISMPVMRNSATFKSFEDRVGTIKSKVVGGRENGSDNLPPSPGSGDQTLPDHAPF | soluble
MNIDLNADLGEGCASDSELLTLVSSANIACGFHAGDAQTMLTCVREALKNGVAIGAHPSFPDRDNFGRTAMVLPPETVYAQTLYQIGALGAIVQAQGGVMRHVKPHGMLYNQAAKDPHLAQAIAKAVHDYDPSLILVGLAGSELIRAGERHRLVTRQEVFADRGYQADGSLVPRMQPGALIHDEEQALAQTLDMVQAGRVKSVTGVWTTVTAQTVCIHGDGEYALAFARRLRAAFNARNIHVIALEHHHHHH | soluble
MGSDKIHHHHHHVLDKIELFILDMDGTFYLDDSLLPGSLEFLETLKEKNKRFVFFTNNSSLGAQDYVRKLRNMGVDVPDDAVVTSGEITAEHMLKRFGRCRIFLLGTPQLKKVFEAYGHVIDEENPDFVVLGFDKTLTYERLKKACILLRKGKFYIATHPDINCPSKEGPVPDAGSIMAAIEASTGRKPDLIAGKPNPLVVDVISEKFGVPKERMAMVGDRLYTDVKLGKNAGIVSILVLTGETTPEDLERAETKPDFVFKNLGELAKAVQ | soluble
MRGKNTGKQRRSIKKQQTVAELKHLFDAPGRGSVMPRQVLWGDLCLTAFPHELNSESTAPMHRYILLSIIRIPLPLTLESQRSLTLVKRCFRRSSVLSSTLYSRLGSTTF | not soluble
